Experiments:
[1] = Specific biological activity of recombinant cytokine protein; conditions: for in vitro specific bioactivities: r-BoIL-1 compared with r-BoIL-2; for biological activity: mass of protein
[2] = tested on: milk PMNs; experiment: Inducible superoxide of milk PMNs after PMA stimulation (cytochrome-c reduction); format: in vivo, bovine (Holstein dairy cattle)
Experimental: (§1) FIGS. 2(A-I): Quantity and Quality of Milk PMNs from Mammary Glands Infused with r-BolL-1 or r-BoIL-2
(§2) A total of 12 mammary glands from normal lactating Holstein dairy cattle are infused through the teat canal with either 200 μg of r-BoIL-1; 2 mg of r-BoIL-2; or 1 mg of r-BoGM-CSF. Milk samples are collected and the number of viable somatic cells counted on a Coulter® ZM with a C256 Channelyzer. The data is expressed as the somatic cell count per ml of milk sampled at 16, 40, 64 and 88 hours after infusion for r-BoIL-1 (A); r-BoIL-2 (D); or r-BoGM-CSF(G). The total percentage of phagocytosis by milk PMNs (polymorphonuclear cells) is quantitatively measured by flow cytometry by measuring the percentage of cells ingesting 2μ fluorescent beads for r-BoIL-1 (B); r-BoIL-2(E); or r-BoGM-CSF(H). The total population is first gated by forward angle light scatter, FALS and 90° light scatter to only consider viable polymorphonuclear cells. The induction of superoxide after PMA (520.eta.g)stimulation is also monitored using a whole cell cytochrome-c reduction assay, for r-BoIL-1 (C); r-BoIL-2(F); or r-BoGM-CSF(I). PMNs from untreated milk could not be induced to produce superoxide, while peripheral blood PMNs are inducible in a range of 5-15 .eta.M O2 /Minute/10^7 PMNs.

[3] = tested on: milk PMNs; experiment: Phagocytosis of fluorescent beads by milk PMNs (flow cytometry) after intramammary infusion; format: in vivo, bovine (Holstein dairy cattle)
Experimental: as §1, §2

[4] = tested on: S. aureus; experiment: Therapy of established S. aureus mastitis infections; format: in vivo, S. aureus (in lactating Holstein dairy cattle); conditions: for most efficacious dosing: compared with a single bolus; for dose response of therapeutic efficacy / therapeutic efficacy in infected mammary glands: intramammary infusion
Experimental: The percentage of quarters clearing the infection for greater than 1 milking (RESPONDING), as compared to the percentage of quarters which actually cure their infections (CURE) is a measure of the failure of the host cells to kill the bacteria. The relapse rate is the greatest for r-BoIL-2 (combined relapse rate of 40% for the 10 mg dose X's 3). […] Furthermore, if activation of the host cells is effective, as indicated by the r-BoIL-2 and r-BoGM-CSF, then a combination therapy with r-BoIL-1 or antibiotics is useful.
^1 S. aureus infections are established 2-3 weeks prior to treatment.
Treatments are administered after the AM or PM milking by 1-3 successive
intramammary infusions. A total of 120 mammary glands from 28 different
lactating Holstein dairy cattle are used. Recombinant bovine
interleukin1(IL-1) and interleukin2(IL-2) are obtained from IMMUNEX Corp.
Seattle, WA. Na cephapirin is prepared is PBS; and CefaLak ®
(BristolMeyers) is used according to package# insert instructions.
^2 Cytokines are infused intramammary through the teat canal after th
PM milking at the indicated intervals. The total dose is delivered in a
total volume of 10 ml of sterile PBS. The biological activity of rBoIL-1
and rBoIL-2 is 32,000 Units/μg and 22,000 Units/μg, respectively. A
total dose per infusion 200 mg of Na cephapirin and CefaLak ® is
administered after consecutive PM and AM milkings, according to described
^3 The % RESPONDING = quarters which transiently (> 1 milking) are
free of S. aureus divided by the total number of quarters treated.
^4 The % CURED QUARTERS = # of quarters which clear their infection
and remain free of S. aureus divided by the total number of quarters
treated. Infections are considered to have relapsed if there are > 1 CFUs
from three consecutive AM milkings, or > 20 CFUs for two consecutive afte
therapy at anytime during the 14 day monitoring period.
^5 The % RELAPSE = [1 - {[…]}] ×

[5] = tested on: S. aureus; experiment: Prevention of S. aureus mastitis in lactating animals; format: in vivo, S. aureus (in lactating Holstein dairy cattle); conditions: for % CONTROL / % INFECTED: vs Control 1; for protection from subsequent S. aureus challenge: intramammary infusion, Table 1; for most efficacious time of administration for protective effect: relative to S. aureus challenge
Excerpt: This maximal protection correlates with the peak quantitative biological response for this cytokine. […] This also correlates with the peak quantitative biological response of this cytokine and also marks the qualitative increase in phagocytosis and inducible superoxide, FIG. 2D & 2E.
^1 Single intramammary infusion administered after the PM milking. A
total of 100 mammary glands from 22 different lactating Holstein dairy
^2 All glands are free of bacteria on 5 successive samples after the
AM milking prior to the initial infusion.
^3 The total dose in mass of protein is indicated. The biological
^4 Infusions of cytokines were administerd simultaneously with S.
aureus 0, 24 or 48 hours proir to challenge with 30-200 CFUs of S.
^5 Individual quarters are considered cured if the milk samples remai
free of S. aureus. for 14 days after intramammary challenge with of S.
^6 The % Control = (1 - {% Infected After Therapy divided by Infected
in Control Quarters)} × 100.
*Quarters in Control 1 are challenged with 250 CFUs of S. aureus..
Quarters in Control 2 are challenged with 30 CFUs of S. aureus.

[6] = IL-1 multiple, 10 μg, interval 24 hrs
[7] = IL-1 multiple, 10 μg, interval 48 hrs
[8] = IL-1 multiple, 200 μg, interval 24 hrs
[9] = IL-1 multiple, 200 μg, interval 48 hrs
[10] = IL-2 multiple, 2 mg, interval 24 hrs
[11] = IL-2 multiple, 10 mg, interval 24 hrs

B1: recombinant bovine interleukin-1 (protein, UniProt P09428 114-266, looked up)
Interleukin-1 beta: APVQSIKCKLQDREQKSLVLASPCVLKALHLLSQEMNREVVFCMSFVQGEERDNKIPVALGIKDKNLYLSCVKKGDTPTLQLEEVDPKVYPKRNMEKRFVFYKTEIKNTVEFESVLYPNWYISTSQIEERPVFLGHFRGGQDITDFRMETLSP
notes: recombinant bovine interleukin-1, obtained from IMMUNEX Corp. Seattle, WA
in vitro specific bioactivities [1]: equivalent | biological activity [1]: 32,000 Units/μg | inducible superoxide upon phorbol ester stimulation ([2]; 200 μg r-BoIL-1, vs resident PMNs, FIG. 2C): significantly increased over the resident PMNs | phagocytosis ([3]; 200 μg r-BoIL-1, FIG. 2B): unaffected | % CURES [4, 6]: 8% | % RELAPSE [4, 6]: 90% | % RESPONSE [4, 6]: 77% | % CURES [4, 7]: 0% | % RELAPSE [4, 7]: 100% | % RESPONSE [4, 7]: 39% | % CURES [4, 8]: 7% | % RELAPSE [4, 8]: 91% | % RESPONSE [4, 8]: 79% | % CURES [4, 9]: 29% | % RELAPSE [4, 9]: 54% | % RESPONSE [4, 9]: 64% | % CURES ([4]; IL-1 single, 10 μg): 11% | % RELAPSE ([4]; IL-1 single, 10 μg): 0% | % RESPONSE ([4]; IL-1 single, 10 μg): 11% | % CURES ([4]; IL-1 single, 200 μg): 0% | % RELAPSE ([4]; IL-1 single, 200 μg): 100% | % RESPONSE ([4]; IL-1 single, 200 μg): 20% | % CURES ([4]; IL-1 single, 600 μg): 0% | % RELAPSE ([4]; IL-1 single, 600 μg): 100% | % RESPONSE ([4]; IL-1 single, 600 μg): 10% | relapse rate ([4]; as quoted in text of Example 5): 54% | most efficacious dosing [4]: most efficacious if doses are administered over 3 consecutive milkings | dose response of therapeutic efficacy [4]: dose response therapeutic efficacy | therapeutic efficacy in infected mammary glands [4]: effectively treated | % CONTROL ([5]; 1 μg, 0 hrs): 87% | % INFECTED ([5]; 1 μg, 0 hrs): 13% | % CONTROL ([5]; 1 μg, -24 hrs): 100% | % INFECTED ([5]; 1 μg, -24 hrs): 0% | % CONTROL ([5]; 1 μg, -48 hrs): 78% | % INFECTED ([5]; 1 μg, -48 hrs): 22% | protection from subsequent S. aureus challenge [5]: capable of protecting the host from subsequent S. aureus challenge | most efficacious time of administration for protective effect [5]: most efficacious if administered 24 hours prior to S. aureus challenge

B2: recombinant bovine interleukin-2 (protein, UniProt P05016 21-155, looked up)
Interleukin-2: APTSSSTGNTMKEVKSLLLDLQLLLEKVKNPENLKLSRMHTFDFYVPKVNATELKHLKCLLEELKLLEEVLNLAPSKNLNPREIKDSMDNIKRIVLELQGSETRFTCEYDDATVNAVEFLNKWITFCQSIYSTMT
notes: recombinant bovine interleukin-2, obtained from IMMUNEX Corp. Seattle, WA
in vitro specific bioactivities [1]: equivalent | biological activity [1]: 22,000 Units/μg | biological activity ([1]; Table 3 footnote 3): 22,000 Units μg | inducible superoxide, duration ([2]; 2 mg r-BoIL-2, FIG. 2F): remains throughout the 96 hours of sampling | inducible superoxide ([2]; 2 mg r-BoIL-2, vs resident PMNs, FIG. 2F): significantly increased over the resident PMNs | percent phagocytosis ([3]; by 112 hrs, 2 mg r-BoIL-2, FIG. 2E): still above the pre-treatment level | average number of ingested beads per phagocytic cell ([3]; r-BoIL-2, upon activation): increased upon activation | phagocytosis increase over resident PMNs ([3]; within 40-64 hours, 2 mg r-BoIL-2, FIG. 2E): 2-3 fold | combined relapse rate ([4]; 10 mg dose X's 3): 40% | % CURES [4, 10]: 9% | % RELAPSE [4, 10]: 84% | % RESPONSE [4, 10]: 55% | % CURES [4, 11]: 25% | % RELAPSE [4, 11]: 57% | % RESPONSE [4, 11]: 58% | % RESPONSE ([4]; IL-2 multiple, 10 mg, interval 48 hrs): 33% | % CURES ([4]; IL-2 single, 2 μg): 0% | % RESPONSE ([4]; IL-2 single, 2 μg): 0% | % CURES ([4]; IL-2 single, 10 μg): 0% | % RELAPSE ([4]; IL-2 single, 10 μg): 100% | % RESPONSE ([4]; IL-2 single, 10 μg): 20% | % CURES ([4]; IL-2 single, 30 μg): 10% | % RELAPSE ([4]; IL-2 single, 30 μg): 0% | % RESPONSE ([4]; IL-2 single, 30 μg): 10% | most efficacious dosing [4]: most efficacious if doses are administered over 3 consecutive milkings | dose response of therapeutic efficacy [4]: dose response therapeutic efficacy | therapeutic efficacy in infected mammary glands [4]: effectively treated | % CONTROL ([5]; 1 mg, 0 hrs): 23% | % INFECTED ([5]; 1 mg, 0 hrs): 77% | % CONTROL ([5]; 1 mg, -24 hrs): 89% | % INFECTED ([5]; 1 mg, -24 hrs): 11% | % CONTROL ([5]; 1 mg, -48 hrs): 63% | % INFECTED ([5]; 1 mg, -48 hrs): 37% | protection from subsequent S. aureus challenge [5]: capable of protecting the host from subsequent S. aureus challenge | most efficacious time of administration for protective effect [5]: most efficacious if administered 48 hours prior to S. aureus challenge
